From US8889709B2, “Use of isoQC inhibitors in the treatment and prevention of inflammatory diseases or conditions” (Probiodrug AG, priority 2006, dated 2014) come the findings set out here.

What all share (assay): Kinetic parameters of conversion of peptide substrates by murine isoQC
Holding throughout (format): biochemical, mouse
Common to all, as to conditions: pH 8.0; 30.0 °C

Substrate in data set [1]: NC(=O)CC[C@H](N)C(=O)N[C@@H](CCC(=O)O)C(=O)O
Substrate in data set [2]: C[C@H](NC(=O)[C@H](Cc1ccc(O)cc1)NC(=O)[C@@H](N)CCC(N)=O)C(=O)O
Substrate in data set [3]: NC(=O)CC[C@H](N)C(=O)NCC(=O)N1CCC[C@H]1C(=O)O

B1: mouse-isoQC (Mus musculus; I74N) (protein)
chain: EEMSRSRDLRVPLNGSLSEAKLRLVVGQLDPQRLWGTFLRPLLIVRPPGSSGNLQVRKFLEATLQSLSAGWHVELDPFTASTPLGPLDFGNVVATLDPGAARHLTLACHYDSKFFPPGLPPFVGATDSAVPCALLLELVQALDAMLSRIKQQAAPVTLQLLFLDGEEALKEWGPKDSLYGSRHLAQIMESIPHSPGPTRIQAIELFVLLDLLGASSPIFFSHFPRTARWFQRLRSIEKRLHRLNLLQSHPQEVMYFQPGEPPGPVEDDHIPFLRRGVPVLHLIATPFPAVWHTPADTEANLHPPTVHNLSRILAVFLAEYLGL
notes: starting with codon 43 (Glu 43) of the open reading frame (counting from methionine II); yeast alpha-factor secretion signal (N); made in house; host or cells: Pichia pastoris X-33
Turning to B1, in data set [1], the Km was 470 ± 40 µM, the kcat worked out at 7.79 ± 0.44 s⁻¹ and the kcat/Km is 16880 ± 2320 M⁻¹ s⁻¹. Also, in data set [2], the Km worked out at 58 ± 4 µM, the kcat amounted to 22.9 ± 0.86 s⁻¹ and the kcat/Km was found to be 394230 ± 21360 M⁻¹ s⁻¹. Also, in data set [3], the Km came out at 102 ± 6 µM, the kcat was found to be 11.4 ± 0.4 s⁻¹ and the kcat/Km came out at 111440 ± 6810 M⁻¹ s⁻¹.

As usually defined, the Km is the concentration of substrate that gives half-maximal velocity. Broadly, the kcat is the maximal rate divided by the concentration of active sites. Broadly, the kcat/Km is the turnover number divided by the Michaelis constant.
